Measured values taken from the DeepSol protein solubility set.

Assay: soluble on expression in E. coli; label from the status in PepcDB or PDB records

Sequence | soluble on expression in E. coli
MAHHHHHHMSYLLHSSSYAAATAAAERDGPARGAGGGPLNVVLSRVRSLLHGEPSRVARATSIIDDGSSGSLKRAERHSGASSASRREVLLPLTHDSARVARVPEVSGFIEHGGGFAIPAAKASPRTAPTPVAPPTTNESPVHRPPSARPVDAARDASLYERAVDYTDLEEILRCPLPPVPGCPTPCAFGRHSAGLSSDGSVTAAATLSPPPAPSSARQPPLVFRCIAADSDTGISVYSTPAEDCPMHLMRAYAVLPCSPGDVLQYMDNDIRPRWDSHLRRSALLRELTPPEQTKAVERQYRLSTSIGTAGAAVSQRSPTSLSAQSQGALRQRASSSPRTTGAIHGGCGSAVVSGPATAAASSPTAFQYLPGQRRVAIHYLETRSPVPFVQDRDFEIVVAEEVRPDDTAYVKAFSTPLGYHMPLGPHQSRYVRAVVVLSGMVARPLDAARVEEVLPPVLLRHHRAAAQHGNIQVAGIATKKPSASATVCGDAAARAACVAAPHRYCVVEYVGLVHPMGLLPAVLVNMIISAQLNAMRKMQAFIMQHPMSTLRPRSATHAATGEATGQPLQELLVSLQSLSPSPRKSSRMGKSQESDAAGRTREVKPEATGASAASVSAPLAASPAPVWWRRQMHRFASNL | not soluble
MAHHHHHHMTAYPFPIIDVSPLYQNTGAVMEVAKKIDEACRTWGFFYVVGHPIPRERFQELSRMARKFFSLPLEEKLQIDIKKSRHHRGYGEVNAEQLDPSAPNDHKETFDMGCHLPEDHPDVVAGKPLRGPNRHPTQLEGWRELMETHYREMQHFALVLLRALAVAIGIEEDFFVPRFVEPLSVFRMIHYPALPKTKEGRLVCGEHTDYGIITLLFQDTNGGLQVRDLSGEWIDAPPLEGSFVVNIGDMMNMWSNNRYRSTPHRVVNPGVDRISMPFFCEPNPNVVIKCLENCHSAENPAKYPPVKASDWLQKRFAQTYAYRKSML | soluble
MAHHHHHHMTEYALSLYVTLPSSFPKAAPRATMPYCCHNVPITPPNINPSEALAYQWSSTTSTLVEAVRNAFQNAADCWGPVEPPSMRSVTLQLSGETDRLLQDLVTNPNCLDAYCYQLPIVKLMREASRHTVSEIERVANENTTLRNEVETLEAQVKDLQRYLDEQVSQLQQLEQNRLLLSVGTPEALIKTLEDDVRRMSSDCMTLGRRALDAYKADKGGFQDLLKQYKAQSKATHMLDLKRLSYRAQCAAS | not soluble
MAHHHHHHMTFEFGEECNNLARAAHQTKNYGDAISLYDRALTMRREKYGPIHKKCAATLHNIGRVFIDMKEYGAAENAFTEAAAIYEQVEGDKSLEYAESLELLALCYTHLKFLDEAEKAFKDSIRIFRDQCYNYGNNSWLPDDKTPPAEPNKHPLSSAAHALADCAALFLFRRQEHQAVAFLEEALEIRRFLYSRHVKFRPMIAQTLNKLCELKKSLDDAVGAEMCINECLEICIETLGRDHPATAQATSSKAGLLAAKKQFRDALRLYEESTRTYAMALGKDAPLFGQELMKLGRCQELCNDVVNAEKTFRRGVEIITNGFGPNSLQLAEANTFYGSLLARRLDIDQAVGMFRDAIRIRKSVDKHDPQLAYLYQKIGDAYAMRREPHAEAYFLLAVDAFKQNATIEPLQRTYMTDVLDDLGLFYLDFQHYEKAEKCFKEALDTRIEMLGENHATVAYSYSNFALLYLQRQDYANCEKMAEAALDIYSKTARSNVLAQADVHTTLGQCYHQQNQFAKALEMHEKALNVRRTRGDTTETAVAESLNQIARVYITMKRYGKAYRHVKEARRLVWQFNVEITQPLRNEIVKTEQMIPPMEEWTNEERAEAQVMIGDGSSAGNGSAATTATGA | not soluble
MAHHHHHHMTKVWMPWAYQALLAYAHSGAAHGQANLWLKGQTSTPLQRICDPVPNLLISQSSQGGQRALWLLHRPESVLGLVVSPQWQGESGDHELCDASVVSKRKIVRVMKHLHSLPFRVAGSSPLRPPMVVHKNHLVGWRIDGKAAPLYAHTLDQLAKLKPTQFKTIEPKNAFICRTYYEWDNWKEVSMEPGWTWHHVDEEIANNILDGTLTFDGLRATATDTP | not soluble
MAHHHHHHMTLIENLNSDKTFLENNQYTDEGVKVYEFIFGENYISSGGLEATKKILSDIELNENSKVLDIGSGLGGGCMYINEKYGAHTHGIDICSNIVNMANERVSGNNKIIFEANDILTKEFPENNFDLIYSRDAILHLSLENKNKLFQKCYKWLKPTGTLLITDYCATEKENWDDEFKEYVKQRKYTLITVEEYADILTACNFKNVVSKDLSDYWNQLLEVEHKYLHENKEEFLKLFSEKKFISLDDGWSRKIKDSKRKMQRWGYFKATKN | soluble
MAHHHHHHMTSAYRIRDAAPADAGIMVRMLMSLASETENVELDEGEVRRGVTTLFEQGSLGRLYVAEEVPKGDTNIKGPSDGNRSSPQIVGVMTVTYEWSDWRGKLFLWIQSVYIIPSKRKQGIFQKFYDHLIRIMAEDPKYCGLRLAVNSKNEKAIRAYKQVGMKREKYQLMGRMKSKY | soluble
MAHHHHHHMTSLQNLFVAKLPRNLTDADLHQIFVQYNPTSAKVMLDATTGKSKGFGFVLFASEDAGRTAYEKLNKTHVTLHGHNFNLCIFPSKHDGKVAMEESNALYVRNIPLKLSQAEVEQFLRGFGPLTYCAMREDNFGGSVWVVYAEFDSVESAKRALMSLHGNRTYFNTSVAILAKYADSEETKRERRRRREQQQAEQQHLDTVHNFGSPTTGLDSNKGFAVQSQNTPLPPPPPPPMRTSPGHSSTGSTLASSYSTSDMHKEGTGASLHPPTFASISHHFAPGRHGGGGPPPAMGQPAAPPASSMLASSTLQPTQPVSGQPQQSPTPNSGSFLNVIFNPTSANNFGNSFTHYSVLDQTPSRSSPGTPLNFSFGPEMENSGALANGLGTGSHAMLSASGHAPMTPVRRSSNLSTSGSYRHNPYAPVTPVSSTHNSTGPSTPLVSSIAYPTAPLAIMHFGASHHLQGSPVALHPLGPGIGVANNHFASRGNNAYLAAPASFNDLSH | not soluble
MAHHHHHHMTSSSVTPDQVLAFTAPTERFLCPLTANKYGVEFYQFTIRDIEQNKVLFEVGEAPDGSADGSVTDMLARVAQLSEEEAAAARTIRYRFAPSFLRKTAVGAKLVFGVNGDQPVPKFRMIERHYFRNVLIKSFDFEFGFCIPHSTNTWEAIYDMPSLNPEWEEAIVASPFEMASDSFYFVGNELIMHNKAYYAYDGEEL | not soluble
MAHHHHHHMTTLEKQLQSSTLSKQCRADLLNHVEEVETNSRRLPKKMITLPDPNLPSAVTMPTDNSVKRGTRSATAGANMARSLHYTTRKREKDEMVASRITSDRNLSGTYFKDCSHKFVNGARSWSDPFRSSRSRTALSGKDMDFVYRYAEAATGSAIERPQPADDASVAATAAYRKAFRQYKGRDPTAKEMEEAGRLVYAFDENCSVGVLQKPHSCYPHTHISAVKTHIRACPNQVYLPEVPPVRAARSEFPGPIPTWSSTKRTTTMATNGTYRPGHHQAKSLKWEAVSTVVGSR | not soluble
MAHHHHHHMVRRLEGNPVPTIGIIFMLHAHRTAHLKYYQSMSLFAIENVDVVWGAAGYSILKQTQGAWMALYDEAYVSENKVMPFGYLVQNGVLMPTSDPCNAANTLAGDGSATAKKWGGTSQQKHRYAYEADVVPRRSCIKARTRSADNSGRRVTFCSGDTEFGVF | not soluble
MAHHHHHHMVSFSLIIYTSLRLAHACDARNCTLQQLGRQLEAVVTVCDESSSTTTTESTSERANNASSAADATRTGQGADAAQQVHSTTQAKRASLARDSDFKSSSEIAAFSVLRAWCPPPTARILILGMGGNSMAHALRVVLGAEALIEVVEVEPAVVVSCMQMGTLHESDTKTKVHLQDADQCLATLPPTTYDFIYMDIFEPIQATMRNLHPWVLATRTLLKPGGLLVMNDHHLPSAAGVAPYAKVFGEGNVQAVNLRGWSESIVVCVAPGDAATDKYSLDVSKTHADIAFNIYETLVPGWLPHFSWLVKAKTYRHEGVRCRLWTS | soluble
MAHHHHHHMYDVKSIHIFRKVKDKDKGKSVILRGLNDNFFNAILVCMYEIVIYLNFANCEDGSTNKPSNKKKKKKGDDRNETTYYVKSARNENNAYRSNVKEVISHNKNKKKINGASGNAAVTREEKGKAERSGDFPGGGENMNDDKENPNQITLWSSNNHEEFGYEYIKDIIKKEEKELYETDKMYHNSNDEYSSHTSDSVEQ | not soluble
MAHHHHHHMYFVIEEWKNVIIKPSQLGPRYQQYIEDMLRNSVEGQCSVKYGYVICVIRIIHSEPGRVQDGTGMIVVKVKYQAIVFKPFKDEVLDAIVTDVNKLGFFAQAGPLKIFISRTAIPKYFEYSEDLHYPCFSSGDYNIKPQTTVRIKLQGIRYDLSNMFAIATINNEYLGCIESNILQVM | not soluble
